Assay [1] deals with T1, CXCR1 (UniProt P25024 1-350, limits assumed).
T1 construct: whole, on cells; also called CXCR1 receptor; CXCR1-U2OS
T1 sequence (looked up): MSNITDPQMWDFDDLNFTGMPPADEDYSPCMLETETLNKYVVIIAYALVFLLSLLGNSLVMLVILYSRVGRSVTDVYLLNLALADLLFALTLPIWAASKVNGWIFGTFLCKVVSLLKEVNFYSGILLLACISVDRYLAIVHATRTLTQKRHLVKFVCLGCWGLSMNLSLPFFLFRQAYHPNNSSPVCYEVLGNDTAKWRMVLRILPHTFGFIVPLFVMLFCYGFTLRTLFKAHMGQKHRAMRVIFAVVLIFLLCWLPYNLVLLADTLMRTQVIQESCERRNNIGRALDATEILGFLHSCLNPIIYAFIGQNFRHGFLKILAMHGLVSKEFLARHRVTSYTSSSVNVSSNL
The experiment in a line: flow cytometry; CXCR1-U2OS over parental U2OS cells. In general terms: In flow cytometry, cells or beads pass a laser one at a time.

The target in assay [2] is T1, CXCR1. The experiment in a line: flow cytometry, IgG 10 nM, 2% BSA in PBS plus 2 ug/ml heparin sulfate.
Experimental: Transfections and ELISA were carried out as described above, and flow cytometry was used to evaluate CXCR1 binding specificity as previously described, with the modification that cells were resuspended in 2% BSA in PBS plus 2 ug/ml Heparin sulfate, and IgGs were normalized to 10 nM during incubation on cells.
The target of assay [3] is T1, CXCR1. The experiment in a line: flow cytometry; fluorescence on CXCR1-U2OS over parental U2OS cells.
Experimental: (§1) Briefly, a cell line expressing functionally validated CXCR1 derived from U2OS cells was obtained from DiscoveRx and cultured per manufacturer's instructions (Cat#93-0226C3, DiscoveRx Corporation, Freemont, Calif.). The parental cell line U2OS was obtained from ATCC and cultured under the same conditions as the CXCR1 cells. Cell culture supernatants were then tested for binding to cells by flow cytometry. The adherent U2OS or CXCR1-U2OS cells were dissociated with Accutase (Innovative Cell Technologies, Inc., San Diego, Calif.), neutralized with an equal volume of media containing 10% serum, centrifuged at 1000 g, and resuspended in PBS with 2% BSA. Next, cells were dispensed into microtiter plates to achieve between 30,000 to 300,000 cells per well, centrifuged again, and resuspended in cell culture supernatant containing expressed IgG, or a dilution of IgG-containing cell culture supernatant. A fluorescent-conjugated anti-Human Fc antibody was used to detect binding of the expressed antibody to cells.
Assay [4] addresses T1, CXCR1. The experiment in a line: flow cytometry, IgG supernatant, fluorescent anti-human Fc; parental U2OS: 5.
Experimental: as §1
The target of assay [5] is T1, CXCR1. The experiment in a line: flow cytometry; fluorescence on CXCR1-U2OS over parental U2OS cells. The source holds these as a separate data set.
Experimental: as §1
The target of assay [6] is T1, CXCR1. The experiment in a line: flow cytometry; secreted IgG, CXCR1-U2OS over parental U2OS cells.

Changes are numbered by the printed parent chain. In names and notes the source's numbering stands.

The values that follow come from patent US20160159928A1 (published 2016).

B1: VH4-34+CDR3-IL8_CDR1 Cow with light chain V1-51 (antibody, human IgG1, lambda)
heavy: not shown
light: QSVLTQPPSVSAAPGQKVTISCSGSSSNIGNNYVSWYQQLPGTAPKLLIYDNNKRPSGIPDRFSGSKSGTSATLGITGLQTGDEADYYCASAEDSSSNAVFGSGTTLTVLGQPKAAPSVTLFPPSSEELQANKATLVCLISDFYPGAVTVAWKADSSPVKAGVETTTPSKQSNNKYAASSYLSLTPEQWKSHRSYSCQVTHEGSTVEKTVAPTECS
With B1, the “CXCR1/Parental Ratio” value with CXCR1 [1] is 2.4. Besides, the “CXCR1 specificity (CXCR1/parental ratio)” value with CXCR1 [2] is 7.2.

B2: VH4-34+CDR3-IL8_CDR1 Cow_CDR2 Cow with light chain V1-51 S2A, T5N, P8S, A12G, A13S, P14L (antibody)
VH: QVQLQQWGAGLLKPSETLSLTCTASGFSLSDKAVGWIRQPPGKGLEWLGSIDTGGNTGYNPSLKSRVTISVDTSKNQFSLKLSSVTAADTAVYYCTSVHQETKKYQSPRSAKELRCQCIKTYSKPFHPKFIKELRVIESGPHCANTEIIVKLSDGRELCLDPKENWVQRVVEKFLKRAENSGSGSYTYNYEWHVDVWGQGLLVTVSSAS
light: B1 light with S2A, T5N, P8S, A12G, A13S, P14L
notes: also called BID 36; VH4-34 MutB IL-8 CDR1cow CDR2cow
With B2, in the assay with CXCR1 [2], the “CXCR1 specificity (CXCR1/parental ratio)” value was 12.2.

B3: VH4-34+CDR3-IL8_CDR1 Cow_CDR2 Cow with light chain V1-51 (antibody, human IgG1, lambda)
heavy: not shown
light: B1 light
notes: also called BID 35
For the molecule B3, the “CXCR1/Parental Ratio” value in the assay with CXCR1 [1] came out at 3.1. The “CXCR1 specificity (CXCR1/parental ratio)” value with CXCR1 [2] worked out at 11.1.

B4: VH4-4+CDR3-IL8 IgG (antibody)
VH: QVQLQESGPGLVKPSETLSLTCTVSGGSISSYYWSWIRQPAGKGLEWIGRIYTSGSTNYNPSLKSRVTMSVDTSKNQFSLKLSSVTAADTAVYYCTSVHQETKKYQSPRSAKELRCQCIKTYSKPFHPKFIKELRVIESGPHCANTEIIVKLSDGRELCLDPKENWVQRVVEKFLKRAENSGSGSYTYNYEWHVDVWGQGLLVTVSSAS
light: not shown
notes: also called VH4-4 BLVCDR3IL8
Regarding B4, the “Ratio of CXCR1/Parental” value in the assay with CXCR1 [3] worked out at 3.1.

B5: VH1-46+CDR3-IL8 IgG (antibody)
VH: QVQLVQSGAEVKKPGASVKVSCKASGYTFTSYYMHWVRQAPGQGLEWMGIINPSGGSTSYAQKFQGRVTMTRDTSTSTVYMELSSLRSEDTAVYYCTSVHQETKKYQSPRSAKELRCQCIKTYSKPFHPKFIKELRVIESGPHCANTEIIVKLSDGRELCLDPKENWVQRVVEKFLKRAENSGSGSYTYNYEWHVDVWGQGLLVTVSSAS
light: not shown
notes: also called VH1-46 BLVCDR3IL8
Take B5: the “Ratio of CXCR1/Parental” value with CXCR1 [3] was 1.1. Further, in the assay with CXCR1 [4], the “fluorescence on CXCR1-U2OS cells” value was found to be 6.

B6: VH4-34+CDR3-IL8 IgG (BLV1H12 light chain) (antibody)
VH: QVQLQQWGAGLLKPSETLSLTCAVYGGSFSGYYWSWIRQPPGKGLEWIGEINHSGSTNYNPSLKSRVTISVDTSKNQFSLKLSSVTAADTAVYYCTSVHQETKKYQSPRSAKELRCQCIKTYSKPFHPKFIKELRVIESGPHCANTEIIVKLSDGRELCLDPKENWVQRVVEKFLKRAENSGSGSYTYNYEWHVDVWGQGLLVTVSSAS
light: not shown
notes: also called VH4-34 BLVCDR3IL8
For the molecule B6, the “FACS CXCR1/Parental Ratio” value with CXCR1 [5] amounted to 9.3. The “Ratio of CXCR1/Parental” value in the assay with CXCR1 [3] is 9.3.

B7: VH4-34+CDR3-IL8_CDR1 Cow with light chain V1-51 CDR2 DNN to GDT (antibody)
VH: B2 VH with L48I, S50E, D52N, T53H, G54S, N56S, G58N
light: B1 light with D51G, N52D, N53T
With B7, in the assay with CXCR1 [2], the “CXCR1 specificity (CXCR1/parental ratio)” value came out at 5.6.

B8: VH4-34+CDR3-IL8_CDR2 Cow IgG (BLV1H12 light chain) (antibody)
VH: B6 VH with I48L, E50S, N52D, H53T, S54G, S56N, N58G
light: not shown
notes: also called VH4-34 + CDR3-IL8 + Cow CDR2
For B8, the “FACS CXCR1/Parental Ratio” value with CXCR1 [5] turned out to be 8.

B9: VH4-34+CDR3-IL8_CDR1 Cow with light chain V1-51 S2A, T5N, P8S, A12G, A13S, P14L (antibody)
VH: B2 VH with L48I, S50E, D52N, T53H, G54S, N56S, G58N
light: B1 light with S2A, T5N, P8S, A12G, A13S, P14L
notes: also called BID 34
In the case of B9, the “CXCR1 specificity (CXCR1/parental ratio)” value with CXCR1 [2] was 4.7.

B10: VH4-34+CDR3-IL8_CDR1 Cow with light chain V1-51 S2A, T5N, P8S, A12G, A13S, P14L & DNN to GDT (antibody)
VH: B2 VH with L48I, S50E, D52N, T53H, G54S, N56S, G58N
light: B1 light with S2A, T5N, P8S, A12G, A13S, P14L, D51G, N52D, N53T
For B10, in the assay with CXCR1 [2], the “CXCR1 specificity (CXCR1/parental ratio)” value was found to be 6.8.

B11: VH4-34+CDR3-IL8_CDR1 G31D, Y32K IgG (BLV1H12 light chain) (antibody)
VH: B6 VH with G31D, Y32K
light: not shown
notes: also called VH4-34 + CDR3-IL8 + E31D, Y32K
With B11, the “FACS CXCR1/Parental Ratio” value with CXCR1 [5] turned out to be 8.1.

B12: VH4-34+CDR3-IL8_CDR1 Cow with light chain V1-51 CDR2 DNNKRP to GDTSRA (antibody)
VH: B2 VH with L48I, S50E, D52N, T53H, G54S, N56S, G58N
light: B1 light with D51G, N52D, N53T, K54S, P56A
As to B12, the “CXCR1 specificity (CXCR1/parental ratio)” value with CXCR1 [2] worked out at 8.

B13: VH4-34+CDR3-IL8_CDR2 E50S IgG (BLV1H12 light chain) (antibody)
VH: B6 VH with E50S
light: not shown
notes: also called VH4-34 + CDR3-IL8 + E50S
As to B13, the “FACS CXCR1/Parental Ratio” value in the assay with CXCR1 [5] came to 4.

B14: VH4-34+CDR3-IL8_CDR1 Cow_CDR2 Cow with light chain V1-51 CDR1 I29V, N32G (antibody)
VH: B2 VH
light: B1 light with I29V, N32G
As for B14, the “CXCR1 specificity (CXCR1/parental ratio)” value with CXCR1 [2] was 11.8.

B15: VH4-34+CDR3-IL8_CDR1 Cow_CDR2 Cow with light chain V1-51 CDR2 DNN to GDT (antibody)
VH: B2 VH
light: B1 light with D51G, N52D, N53T
In the case of B15, in the assay with CXCR1 [2], the “CXCR1 specificity (CXCR1/parental ratio)” value was determined as 16.7.

B16: VH4-34+CDR3-IL8_CDR1 Cow IgG (BLV1H12 light chain) (antibody)
VH: B2 VH with L48I, S50E, D52N, T53H, G54S, N56S, G58N
light: not shown
notes: also called VH4-34 + CDR3-IL8 + Cow CDR1
Consider B16, for which the “FACS CXCR1/Parental Ratio” value in the assay with CXCR1 [5] was 2.1.

B17: VH4-34+CDR3-IL8_CDR1 Cow_CDR2 Cow with light chain V1-51 CDR2 DNNKRP to GDTSRA (antibody)
VH: B2 VH
light: B1 light with D51G, N52D, N53T, K54S, P56A
B17: in the assay with CXCR1 [2], the “CXCR1 specificity (CXCR1/parental ratio)” value is 6.9.

B18: VH4-34+CDR3-IL8_CDR1 Cow with light chain V1-51 CDR1 I29V, N32G (antibody)
VH: B2 VH with L48I, S50E, D52N, T53H, G54S, N56S, G58N
light: B1 light with I29V, N32G
Consider B18, for which the “CXCR1 specificity (CXCR1/parental ratio)” value with CXCR1 [2] turned out to be 8.9.

B19: VH3-23+CDR3-IL8 IgG (antibody)
VH: EVQLLESGGGLVQPGGSLRLSCAASGFTFSSYAMSWVRQAPGKGLEWVSAISGSGGSTYYADSVKGRFTISRDNSKNTLYLQMNSLRAEDTAVYYCTSVHQETKKYQSPRSAKELRCQCIKTYSKPFHPKFIKELRVIESGPHCANTEIIVKLSDGRELCLDPKENWVQRVVEKFLKRAENSGSGSYTYNYEWHVDVWGQGLLVTVSSAS
light: not shown
notes: also called VH3-23 BLVCDR3IL8
Regarding B19, the “Ratio of CXCR1/Parental” value with CXCR1 [3] was 2.7.

B20: VH1-24+CDR3-IL8 IgG (antibody)
VH: QVQLVQSGAEVKKPGASVKVSCKVSGYTLTELSMHWVRQAPGKGLEWMGGFDPEDGETIYAQKFQGRVTMTEDTSTDTAYMELSSLRSEDTAVYYCTSVHQETKKYQSPRSAKELRCQCIKTYSKPFHPKFIKELRVIESGPHCANTEIIVKLSDGRELCLDPKENWVQRVVEKFLKRAENSGSGSYTYNYEWHVDVWGQGLLVTVSSAS
light: not shown
notes: also called VH1-24 BLVCDR3IL8
As to B20, the “Ratio of CXCR1/Parental” value in the assay with CXCR1 [3] came out at 4.3. For the same molecule, the “fluorescence on CXCR1-U2OS cells” value with CXCR1 [4] worked out at 23.

B21: VH1-69+CDR3-IL8 IgG (antibody)
VH: QVQLVQSGAEVKKPGSSVKVSCKASGGTFSSYAISWVRQAPGQGLEWMGGIIPIFGTANYAQKFQGRVTITADKSTSTAYMELSSLRSEDTAVYYCTSVHQETKKYQSPRSAKELRCQCIKTYSKPFHPKFIKELRVIESGPHCANTEIIVKLSDGRELCLDPKENWVQRVVEKFLKRAENSGSGSYTYNYEWHVDVWGQGLLVTVSSAS
light: not shown
notes: also called VH1-69 BLVCDR3IL8
Consider B21, for which the “Ratio of CXCR1/Parental” value with CXCR1 [3] came out at 4.

B22: BLV1H12+CDR3-IL8 heavy chain with BLV1H12 light chain (SEQ ID NO: 412) (antibody, human IgG1)
heavy: not shown
light: QAVLNQPSSVSGSLGQRVSITCSGSSSNVGNGYVSWYQLIPGSAPRTLIYGDTSRASGVPDRFSGSRSGNTATLTISSLQAEDEADYFCASAEDSSSNAVFGSGTTLTVLGQPKSPPSVTLFPPSTEELNGNKATLVCLISDFYPGSVTVVWKADGSTITRNVETTRASKQSNSKYAASSYLSLTSSDWKSKGSYSCEVTHEGSTVTKTVKPSECS
Regarding B22, in the assay with CXCR1 [6], the “FACS CXCR1/Parental Ratio” value amounted to 5.

B23: BLV1H12 IgG (antibody)
VH: QVQLRESGPSLVKPSQTLSLTCTASGFSLSDKAVGWVRQAPGKALEWLGSIDTGGNTGYNPGLKSRLSITKDNSKSQVSLSVSSVTTEDSATYYCTSVHQETKKYQSCPDGYRERSDCSNRPACGTSDCCRVSVFGNCLTTLPVSYSYTYNYEWHVDVWGQGLLVTVSSAS
light: not shown
notes: also called ULcowV
For B23, the “FACS CXCR1/Parental Ratio” value in the assay with CXCR1 [5] worked out at 1.9. Further, the “Ratio of CXCR1/Parental” value with CXCR1 [3] turned out to be 1.9. Also, the “fluorescence on CXCR1-U2OS cells” value with CXCR1 [4] is 9.
